Test results published in patent US20180282690A1, “METHOD AND CULTURE MEDIUM FOR EX VIVO CULTURING OF EPIDERMIS-DERIVED STEM CELLS” (Max-Planck-Gesellschaft zur Förderung der Wissenchaften e.V., priority 2015, published 2018).

Tested on: CD34^+α6^+ HFSCs
Assay: 3D-ECM culture of mouse keratinocytes, CD34+α6+ HFSCs quantified by flow cytometry
Format: cell-based
Conditions: for percentage of CD34+α6+ HFSCs: vs untreated 3C; for growth/expansion of CD34+α6+ HFSCs when FGF-2 or VEGF-164 is replaced: in the 3C, YF and/or YV media, compared with FGF-2 / VEGF-164; for normalized CD34+α6+ content of cultures: day 14 Matrigel
Method: Keratinocytes were isolated from back skin of mice by incubating skin pieces in 0.8% Trypsin (Gibco) for 50 min at 37° C. After separating the epidermis from the underlying dermis, cells were homogenized, filtered through 70 μm and 45 μm cell strainers (BD Biosciences) and pelleted at 900 rpm for 3 min. For 2D culture of epidermis-derived cells, tissue culture petri dished were coated with a mixture of collagen I (30 μg/ml)+fibronectin (10 μg/ml; both from Millipore) in MEM for 1 h at 37° C. prior to plating of cells. Epidermis-derived cells were suspended in KGM or in FAD medium, and seeded on the coated plastic dishes. Medium was exchanged the next day after initial seeding and thereafter every second day. […] For 3D culture of HFSCs, 8×10^4 cells were resuspended in 40 μl ice-cold 1:1 KGM:Matrigel mixture that was dispensed as a droplet in 24-well cell culture dishes. The suspension was allowed to solidify for 15 min after which it was overlaid with 500 μl of stem cell media. The following media compositions were used: KGM basal medium, medium Y (KGM, 5 μM Y27632, 10 ng/ml human recombinant EGF), medium Y-E (KGM, 5 μM Y27632), medium YV (KGM, 5 μM Y27632, 10 ng/ml human recombinant EGF, 20 ng/ml mouse recombinant VEGF), medium YF (KGM, 5 μM Y27632, 10 ng/ml human recombinant EGF, 20 ng/ml human recombinant FGF-2), 3C (KGM, 5 μM Y27632, 10 ng/ml human recombinant EGF, 20 ng/ml mouse recombinant VEGF, 20 ng/ml human recombinant FGF-2), and 3C-E (KGM, 5 μM Y27632, 20 ng/ml mouse recombinant VEGF, 20 ng/ml human recombinant FGF-2).
For cell passaging and flow cytometry cultured hair follicle stem cells were extracted from Matrigel by mechanical homogenization and incubation in 0.5% Trypsin (Gibco), 0.5 mM EDTA, PBS or Accutase (Gibco) for 10 min at 37° C.
Single cell suspensions prepared from murine back skin (described above) or from cultured cells were rinsed once with KGM and stained with fluorescently labeled antibodies for 30 min on ice. After two washes with FACS Buffer (2% FCS, 2 mM EDTA, PBS) cells were measured in a BD FACS Canto II and data was analyzed using FlowJo software version 10. For purification of cell populations (cell sorting) a BD FACS Aria II or a BD FACS Aria Fusion were used. Cells were sorted in KGM medium at 4′C. Expression of cell surface markers was analyzed on live cells after exclusion of cell doublets and dead cells, respectively.

[1] = cyclopamine 10 μM for 5 days added to 3C cultures
[2] = 3C conditions (Y27632+EGF+FGF+VEGF), vs VEGF-164 or FGF-2 set to 1
[3] = YF conditions (Y27632+EGF+FGF), vs FGF-2 set to 1

Molecule: COc1cc(-c2cc(-c3cccc(O)c3)cnc2N)cc(OC)c1OC [K02288, 3-[6-amino-5-(3,4,5-trimethoxyphenyl)pyridin-3-yl]phenol, reference compound]
- percentage of CD34+α6+ HFSCs (3C conditions 14 days with K02288 10 nM): decrease

Molecule: C[C@@H](N)[C@H]1CC[C@H](C(=O)Nc2ccncc2)CC1.Cl.Cl.O [Y27632, (R)-(+)-trans-4-(1-aminoethyl)-N-(4-Pyridyl)cyclohexanecarboxamide dihydrochloride monohydrate, reference compound]
- requirement of ROCK inhibitor for HFSC growth and expansion (3C conditions, from the beginning of the culturing time): essential

Molecule: CC1=C2C[C@H]3[C@@H](CC=C4C[C@@H](O)CC[C@@]43C)[C@@H]2CC[C@]12O[C@@H]1C[C@H](C)CN[C@H]1[C@H]2C [cyclopamine, (2′R,3S,3′R,3′aS,6'S,6aS,6bS,7′aR,11aS,11bR)-1,2,3,3′a,4,4′,5′,6,6′,6a,6b,7,7′,7′a,8,11,11a,11b-Octadecahydro-3′,6′,10,11b-tetramethylspiro[9H-benzo[a]fluorene-9,2′(3′H)-furo[3,2-b]pyridin]-3-ol, reference compound]
- proportion of HFSCs in the cultured cell mixture (3C conditions 9 days, then cyclopamine 10 μM for 5 days, flow cytometry day 14): up to 93.6%
- total cell numbers [1]: decrease
- percentage of CD34+α6+ HFSCs [1]: elevated

B1: FGF-18: human recombinant FGF-18 (protein, UniProt O76093 28-207, looked up)
Fibroblast growth factor 18: EENVDFRIHVENQTRARDDVSRKQLRLYQLYSRTSGKHIQVLGRRISARGEDGDKYAQLLVETDTFGSQVRIKGKETEFYLCMNRKGKLVGKPDGTSKECVFIEKVLENNYTALMSAKYSGWYVGFTKKGRPRKGPKTRENQQDVHFMKRYPKGQPELQKPFKYTTVTKRSRRIRPTHPA
- growth/expansion of CD34+α6+ HFSCs when FGF-2 or VEGF-164 is replaced: Comparable

B2: FGF-10: human recombinant FGF-10 (protein, UniProt O15520 38-208, looked up)
Fibroblast growth factor 10: QALGQDMVSPEATNSSSSSFSSPSSAGRHVRSYNHLQGDVRWRKLFSFTKYFLKIEKNGKVSGTKKENCPYSILEITSVEIGVVAVKAINSNYYLAMNKKGKLYGSKEFNNDCKLKERIEENGYNTYASFNWQHNGRQMYVALNGKGAPRRGQKTRRKNTSAHFLPMVVHS
- normalized CD34+α6+ content of cultures [2]: perform equally well
- normalized CD34+α6+ content of cultures [3]: perform equally well
- growth/expansion of CD34+α6+ HFSCs when FGF-2 or VEGF-164 is replaced: Comparable

B3: FGF-7: human recombinant FGF-7 (protein, UniProt P21781 32-194, looked up)
Fibroblast growth factor 7: CNDMTPEQMATNVNCSSPERHTRSYDYMEGGDIRVRRLFCRTQWYLRIDKRGKVKGTQEMKNNYNIMEIRTVAVGIVAIKGVESEFYLAMNKEGKLYAKKECNEDCNFKELILENHYNTYASAKWTHNGGEMFVALNQKGIPVRGKKTKKEQKTAHFLPMAIT
- normalized CD34+α6+ content of cultures [2]: perform equally well
- normalized CD34+α6+ content of cultures [3]: perform equally well
- growth/expansion of CD34+α6+ HFSCs when FGF-2 or VEGF-164 is replaced: Comparable
